Experimental data taken from paper PMC11246235.

Target: T1, CST (Ctc1/Stn1/Ten1), His6-MBP tag of Ctc1 cleaved off (human), Q2NKJ3
T1 chain 1: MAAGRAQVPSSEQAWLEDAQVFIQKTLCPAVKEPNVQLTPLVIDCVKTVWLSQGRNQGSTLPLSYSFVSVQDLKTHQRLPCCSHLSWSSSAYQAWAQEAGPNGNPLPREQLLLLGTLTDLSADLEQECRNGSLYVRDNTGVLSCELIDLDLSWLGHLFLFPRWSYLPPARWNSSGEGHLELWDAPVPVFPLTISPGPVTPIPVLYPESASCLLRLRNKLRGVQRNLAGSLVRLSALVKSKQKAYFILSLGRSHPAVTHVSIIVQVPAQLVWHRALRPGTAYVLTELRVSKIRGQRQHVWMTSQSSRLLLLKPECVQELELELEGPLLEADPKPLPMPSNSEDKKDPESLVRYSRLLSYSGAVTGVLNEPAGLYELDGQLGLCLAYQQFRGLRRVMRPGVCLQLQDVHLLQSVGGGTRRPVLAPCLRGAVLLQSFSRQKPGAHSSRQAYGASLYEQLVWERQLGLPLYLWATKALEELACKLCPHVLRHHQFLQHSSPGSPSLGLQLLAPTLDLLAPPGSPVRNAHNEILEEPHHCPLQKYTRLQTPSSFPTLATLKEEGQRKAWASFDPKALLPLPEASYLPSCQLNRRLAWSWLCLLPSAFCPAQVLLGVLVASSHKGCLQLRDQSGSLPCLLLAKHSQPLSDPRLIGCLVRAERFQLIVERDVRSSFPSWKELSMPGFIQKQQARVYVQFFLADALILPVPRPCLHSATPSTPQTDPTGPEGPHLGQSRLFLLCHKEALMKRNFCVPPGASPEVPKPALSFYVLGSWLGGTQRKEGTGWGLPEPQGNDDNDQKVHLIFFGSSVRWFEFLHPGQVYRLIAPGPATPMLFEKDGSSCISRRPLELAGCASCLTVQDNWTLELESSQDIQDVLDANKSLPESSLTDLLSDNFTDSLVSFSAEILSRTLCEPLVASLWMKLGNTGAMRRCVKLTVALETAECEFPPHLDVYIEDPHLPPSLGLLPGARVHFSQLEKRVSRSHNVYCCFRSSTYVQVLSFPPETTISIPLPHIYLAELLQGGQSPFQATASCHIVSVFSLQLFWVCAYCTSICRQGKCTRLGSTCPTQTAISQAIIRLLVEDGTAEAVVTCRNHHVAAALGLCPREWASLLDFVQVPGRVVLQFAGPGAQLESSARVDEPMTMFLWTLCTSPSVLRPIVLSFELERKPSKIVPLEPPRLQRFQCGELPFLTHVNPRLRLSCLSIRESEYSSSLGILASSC
T1 chain 2: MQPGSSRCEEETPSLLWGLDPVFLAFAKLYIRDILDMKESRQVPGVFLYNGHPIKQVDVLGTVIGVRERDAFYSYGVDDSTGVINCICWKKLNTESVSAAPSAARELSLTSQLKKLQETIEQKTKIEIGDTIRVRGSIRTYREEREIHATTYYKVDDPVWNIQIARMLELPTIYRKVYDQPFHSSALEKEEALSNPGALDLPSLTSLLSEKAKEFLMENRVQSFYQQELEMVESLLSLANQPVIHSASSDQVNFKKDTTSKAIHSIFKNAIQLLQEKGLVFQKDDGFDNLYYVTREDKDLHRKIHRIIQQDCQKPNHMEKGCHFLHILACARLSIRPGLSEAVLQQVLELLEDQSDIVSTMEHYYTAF
T1 chain 3: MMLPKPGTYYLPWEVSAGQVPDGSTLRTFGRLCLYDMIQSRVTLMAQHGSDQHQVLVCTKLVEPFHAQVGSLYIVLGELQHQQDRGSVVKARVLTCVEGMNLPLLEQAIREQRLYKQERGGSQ
Experiment: negative-stain EM
Details: remark: other sources report otherwise

B1: CST (Ctc1/Stn1/Ten1), His6-MBP tag of Ctc1 cleaved off, Q2NKJ3 1-1217; Q9H668 1-368; Q86WV5 1-123 (complex)
chain 1: T1 chain 1
chain 2: T1 chain 2
chain 3: T1 chain 3
Binder B1 has a stoichiometry N of 2.
